Reference: article doi:10.1101/2023.10.05.561050 (bioRxiv, 2023)
Values belong to the molecule of their own block, whether it stands above or below them.

Legend:
Assay in all cases: PIE-FCCS
[1] = biological target: Myr-GCN4-EGFRk-FP (multimer control)
[2] = biological target: Myr-GCN4-FP (dimer control)
PIE-FCCS = biological target: the molecule itself

- fc (median cross-correlation value) [1]: 0.23
Molecule: Myr-GCN4-EGFRk-FP (multimer control)

- fc (median cross-correlation value) [2]: 0.14
Molecule: Myr-GCN4-FP (dimer control)

B1: Myr-ICD-ΔS (EphA2 intracellular domain without the SAM domain, AA 559-882, with a membrane localization sequence) (domain or fragment)
chain: HRRRKNQRARQSPEDVYFSKSEQLKPLKTYVDPHTYEDPNQAVLKFTTEIHPSCVTRQKVIGAGEFGEVYKGMLKTSSGKKEVPVAIKTLKAGYTEKQRVDFLGEAGIMGQFSHHNIIRLEGVISKYKPMMIITEYMENGALDKFLREKDGEFSVLQLVGMLRGIAAGMKYLANMNYVHRDLAARNILVNSNLVCKVSDFGLSRVLEDDPEATYTTSGGKIPIRWTAPEAISYRKFTSASDVWSFGIVMWEVMTYGERPYWELSNHEVMKAINDGFRLPTPMDCPSAIYQLMMQCWQQERARRPKFADIVSILDKLIRAPDSLK
modifications: N-terminal myristoylation of the c-Src-derived peptide
- stoichiometry N (PIE-FCCS): 2
